Experimental data: patent US20260028391A1

B1: MPK171-v1 (antibody, V domains shown)
VH: QVQLVQSGAEVKKPGESLKISCKGSGYSFINYWIGWVRQMPGKGLEWMGIIYPFDSDTKYSPSFQGHVTISADKSINTAYVQWSSLKASDTAMYYCARFTFGIAVVTDDVSGEGHAFDIWGQGTMVTVSS
VL: QSVLTQPPSVSGAPGQRVTISCAGSSSNIGAGFDVHWYQQVPGTAPKLLIYNTDNRASGVPDRFSASKSGTSASLAITGLQAEDEADYYCQSYDNSLSGVFGGGTKLTVL
B2: MPK191 (antibody, V domains shown)
VH: EVQLVQSGAEVKKPGESLKISCKGSGYSFINYWIGWVRQMPGKGLEWMGIIYPFDSDTKYSPSFQGHVTISADKSINTAYVQWSGLKASDTAMYYCARFTFGIAVVAGDVTGEGHAFDVWGQGTMVTVSS
VL: EIVMTQSPATLSVSPGDRATLSCRASQSVAGNLAWYQQRPGQTPRLLIYGASTRASGVPARFSGSGSETEFTLTISSLQSEDFAVYYCQQYDNWPHAFGQGTRLDIK
B3: MPK182 (antibody, V domains shown)
VH: EVQLVESGGGLVKPGGSLRLSCTASLSTFSDYYMTWIRQAPGKGLEWLGYISGSQSQTNLADSVKGRFTISRDNAKKSLYLQMNSLRVEDTATYFCARVHLWFGDLNALDLWGQGTKVTVSS
VL: QSVLTQPPSVSGAPGQRVTISCAGSSSNIGAGFDVHWYQQVPGTAPKLLIYNTDNRASGVPDRFSASKSGTSAFLAITGLQAEDEADYYCQSYDNSLSGVFGGGTKLTVL
B4: MPK167 (antibody, V domains shown)
VH: EVQLVQSGPEVKKPGESLKISCKASGYSFINYWIGWVRQMPGKGLEWMGIIYPFDSDTQYSPSFQGHVTISADKSINTAYVQWSSLKASDTAMYYCARFTFGIAVVAGDVSGEGHAFDIWGQGTMVTVSS
VL: EIVMMQSPATLSVSPGERATLSCRASQSVAGNLAWYQQSPGQAPRLLIYGASTRATGVPARFSGSGSETEFTLTISSLQSEDFAVYFCQQYSNWPHAFGQGTRLDIK
B5: MPK169-v2 (antibody, V domains shown)
VH: EVQLVQSGAEVKKPGESLTISCQTSGYSFINYWIGWVRQMPGKGLEWMGVIYPFDSDTEYSPSFRGHVTISADKSINTAYLQWNSLGASDTAMYYCARFTFGIALVSGDVNGEGHAFDVWGRGTLVTVSS
VL: EIVLTQSPPTLSVSPGQRATLSCRASQSVADKLAWYQQRPGQAPRLLIYGASSRATGVPARFSGSGSETEFTLTITSLQSEDFALYYCHQYNNWPHAFGQGTRLVIK
B6: MPK177 (antibody, V domains shown)
VH: EVQLVQSGAEVKKPGESLKISCQVSGYSFMNYWVGWVRQMPGKGLEWMGIIYPFDSDTIYSPSFQGHVTISADTSITTAYLHWSSLKASDTATYYCARFTFGIAVVADGLSGDGEAFDIWGQGTVVTVSS
VL: DIVMTQTPATLSVSPGERATLSCRASQSVAGKLAWYQQRPGQTPRLLIYGASTRATGVPARFSGSGSETEFTLTISSLQSEDFAVYYCQQYSSWPHAFGQGTRLDIK
B7: MPK195 (antibody, V domains shown)
VH: EVQLVQSGAAVKKPGESLKISCRGSGYSFINYWIGWVRQMPGKGLEWMGVIYPFDSDTQYSPSFQGHVTISADKSINTAYLQWDSLKAADTAIYYCARFTFGIALSTADVYGEGQAFDIWGPGTMVTVSS
VL: EIVLTQSPATLSVSPGERATLSCRASQSVAGKIAWYQQRPGQAPRLLIYGASTRATGVPARFSGSGSETEFTLTISSLQSEDFAVYYCQQYSNWPQAFGPGTRLDMK
B8: MPH12 VH-FRGL / MPH12 VL-FRGL-D25E (antibody, V domains shown)
VH: QVQLVESGGGLVKPGGSLRLSCAASGFTFSGFYMKWIRQAPGKGLEWVSSISASGSYTNYADSVEGRFTISRDNAKNSLYLQMNSLRAEDTAVYYCARGDSYCGASACHGEFFHKWGQGTLVTVSS
VL: QSVLTQPPSVSGAPGQRVTISCTGSESNIGADFDVHWYQQLPGTAPKLLIYGNINRPSGVPDRFSGSKSGTSASLAITGLQAEDEADYYCQSYDRSLHYVFGTGTKVTVL
B9: MPH12-v34 (VH-FRGL-S63A/VL-FRGL-D25S) (antibody, V domains shown)
VH: QVQLVESGGGLVKPGGSLRLSCAASGFTFSGFYMKWIRQAPGKGLEWVSSISASGSYTNYADAVEGRFTISRDNAKNSLYLQMNSLRAEDTAVYYCARGDSYCGASACHGEFFHKWGQGTLVTVSS
VL: QSVLTQPPSVSGAPGQRVTISCTGSSSNIGADFDVHWYQQLPGTAPKLLIYGNINRPSGVPDRFSGSKSGTSASLAITGLQAEDEADYYCQSYDRSLHYVFGTGTKVTVL
B10: MPH12 VH-FRGL-S63A / MPH12 VL-FRGL-D25E (antibody, V domains shown)
VH: QVQLVESGGGLVKPGGSLRLSCAASGFTFSGFYMKWIRQAPGKGLEWVSSISASGSYTNYADAVEGRFTISRDNAKNSLYLQMNSLRAEDTAVYYCARGDSYCGASACHGEFFHKWGQGTLVTVSS
VL: QSVLTQPPSVSGAPGQRVTISCTGSESNIGADFDVHWYQQLPGTAPKLLIYGNINRPSGVPDRFSGSKSGTSASLAITGLQAEDEADYYCQSYDRSLHYVFGTGTKVTVL
B11: MPH12 VH / MPH12 VL-FRGL-D25E (antibody, V domains shown)
VH: QVQLVESGGGLVKPGGSLRLSCVASGFTFSGFYMKWIRQAPGKGLEWVSSISASGSYTNYADSVEGRFTVSRDNAKNSLFLLMSSLRAEDTAVYYCARGDSYCGASACHGEFFHKWGQGTLVTVSS
VL: QSVLTQPPSVSGAPGQRVTISCTGSESNIGADFDVHWYQQLPGTAPKLLIYGNINRPSGVPDRFSGSKSGTSASLAITGLQAEDEADYYCQSYDRSLHYVFGTGTKVTVL
B12: MPK152 (antibody, V domains shown)
VH: EVQLVESGGGLVKPGGSLRLSCAASGLTISGYYMIWIRQAPGKGLEWISYISGSSSYTNYADSVKGRFTISRDNGQNTLFLQMDSLRVEDTAVYFCATEETPSPGPFGLWGQGTLVTVSS
VL: QSVVTQPPSVSGAPGQRVTISCTGTSSNIGAGYDVHWYQQFPGTSPKLLIFRNTNRPSGVPDRFSGSTSGSSASLAITGLQTEDEADYYCQSYDRSLDGWVFGGGTELTVL
B13: MPK129 (antibody, V domains shown)
VH: EVQLVESGGGLVKPGGSLRLSCEASGFSLSGYYMIWIRQAPGKGLEWISSISGSGNYIDYADSVKGRFTISRDNGHNTLYLQMNSLRVEDTAVYYCATEQTPSPGPFDHWGQGTLVTVSS
VL: QTVVTQPPSVSGAPGQRVTISCTGTSSNIGTGYDVHWYQQFPGTSPKLLIYRNTNRPSGVPDRFSGSKSGSSASLAIAGLQAEDEADYYCQSYDRSVSGWVFGGGTKLTVL
B14: MPK153 (antibody, V domains shown)
VH: EVHLVESGGGLVKPGGSLRLSCAASGFTFTGYFMIWIRQAPGKGLEWISYISSSSNYINYADSVKGRFTISRDNGQNTLYLQMNSLRPDDTAVYYCATEQVPSPGPFDLWGQGTLVTVSS
VL: QSVLTQPPSVSGAPGQRVIISCTGTSSNIGAGYDVHWYQQFPGASPKLLIFRNTDRPSGVPDRFSGSKSGSSASLAIAGLQAEDEADYYCQSYDRSLDGWVFGGGTKVTVL
B15: MPK132-v1 (antibody, V domains shown)
VH: EVQLVESGGGLVKPGGSLRLSCEASGISLSGYYMIWIRQAPGKGLEWISSISSSSNYIDYADSVKGRFTISRHNGQNTLYLQMNSLRVEDTAVYFCATEQTPSPGPFELWGQGILVTVSS
VL: QSVVTQPPSVSGAPGQRVTIFCTGTSSNIGTGYDVHWYQQFPGTSPKLLIYRNTNRPSGVPDRFSGSKSGSSASLAIAGLQAEDEADYYCQSYDRSVSGWVFGGGTKLTVL
B16: RSD5-FR-GL-rIgG1 (antibody, V domains shown)
VH: QVQLVESGGGVVQPGRSLRLSCAASGFAFNNFAMHWVRQAPGKGLEWVAVVSYDGTSPYYADSVKGRFTISRDNSKNTLYLQMNSLRAEDTAVYYCARGLGSGSYSWIGYFYAMDVWGQGTTVTVSS
VL: QSALTQPASVSGSPGQSITISCTGTSSDVGGYVYVSWYQQHPGKAPKLMIYDVSNRPSGVSNRFSGSKSGNTASLTISGLQAEDEADYYCISYTDRNTVVFGGGTKLTVL
B17: MPK155 (antibody, V domains shown)
VH: EVQLVESGGGLVKPGGSLRLSCEASGISLSGYYMIWIRQAPGKGLEWISSISSSSNYIDYADSVRGRFTISRHNGQNTLYLQMNSLRVEDTAVYFCATEQTPSPGPFDLWGQGILVTVSS
VL: QSVLTQPPSVSGAPGQRVTIFCTGTSSNLGAGYDVHWYQQFPGTSPKLLIYRYTNRPSGVPDRFSGSKSGSSASLAIAGLQAEDEADYYCQSYDRSVSGWVFGGGTKLTVL
B18: MPK157 (antibody, V domains shown)
VH: EVQLVESGGGLVKPGGSLRLSCSASGFTLSGYNMNWVRQAPGKGLEWISYISASSSYINYADSVKGRFTISRDNGRSSLYLQMNSLRAEDTAVYFCTTQAELPGWFDPWGQGTLVTVSS
VL: QSVLTQPPSMSGAPGQRVTISCTGSSSNIGAGYDVNWYRQLPGTAPQLLIYRNTNRPSGVPDRFSGSNSGTSASLAITGLQADDEAHYYCQSYDRSLSGWVFGGGTKLTVL

Key:
[1] = target: fusion glycoprotein of the RSV used in the neutralization assay of Example 1 (respiratory syncytial virus (strain not stated)); experiment: cell-based or functional assay
[2] = target: RSV fusion glycoprotein (RSV-F) (respiratory syncytial virus (strain not stated)); experiment: SPR; sensors loaded with RSV-F, mAb in solution (Experiment 2)
[3] = target: DS-Cav1 RSV F (respiratory syncytial virus); experiment: ELISA on DS-Cav1 RSV F
[4] = target: MPV fusion glycoprotein without the D280N mutation (MPV-F D280) (metapneumovirus); experiment: biolayer interferometry (BLI), rIgG1 with M428L/N434S
[5] = target: MPV fusion glycoprotein with the D280N mutation (MPV-F N280) (metapneumovirus); experiment: as above
[6] = target: MPV fusion glycoprotein without the D280N mutation (MPV-F D280) (metapneumovirus); experiment: SPR; F protein loaded on streptavidin sensors, mAb in solution
[7] = target: MPV fusion glycoprotein with the D280N mutation (MPV-F N280) (metapneumovirus); experiment: as above
[8] = target: fusion glycoprotein of the MPV D280 used in the neutralization assay of Example 3 (metapneumovirus (strain not stated)); experiment: cell-based or functional assay
[9] = target: fusion glycoprotein (F) of the MPV used in the neutralization of Table 34 (metapneumovirus); experiment: cell-based or functional assay
[10] = target: RSV fusion glycoprotein (RSV-F) of the RSV used in the neutralization of Table 33 (respiratory syncytial virus, strain not stated); experiment: cell-based or functional assay

Binder | RSV Neutralization - IC50 [1] [µg/mL] | Kd [2] [nM] | Kd [6] [nM] | Kd [7] [nM] | MPV D280 Neutralization - IC50 [8] [µg/mL] | further results
B1 | 0.0043 | 1.2 | – | – | – | –
B2 | 0.0012 | 0.029 | – | – | – | –
B3 | – | 2.8 | – | – | – | –
B4 | 0.001 | 0.011 | – | – | – | –
B5 | – | 0.62 | – | – | – | –
B6 | 0.001 | 0.001 | – | – | – | –
B7 | 0.0011 | 0.001 | – | – | – | –
B8 | – | – | – | – | – | EC50 [3]: 0.0472 µg/mL
B9 | – | – | – | – | – | Kd [4]: 0.039 nM; Kd [5]: 0.82 nM
B10 | – | – | – | – | – | EC50 [3]: 0.0347 µg/mL
B11 | – | – | – | – | – | EC50 [3]: 0.0306 µg/mL
B12 | 0.0308 | – | 0.001 | 0.069 | 0.0152 | –
B13 | 0.0149 | – | 0.001 | 1.9 | 0.0081 | –
B14 | 0.0296 | – | 0.001 | 5.5 | 0.0199 | –
B15 | 0.018 | – | 0.001 | 4.3 | 0.0101 | –
B16 | 0.00541 | – | – | – | – | IC50 (ng/mL) in neutralization against MPV [9]: > 2000 ng/mL; IC50 (ng/mL) in neutralization against RSV [10]: 1.2 ng/mL
B17 | 0.0265 | – | 0.001 | 2.6 | 0.0141 | –
B18 | 0.0241 | – | 0.001 | 1.2 | 0.0079 | –
